Source: patent US20140294817A1

How the values were obtained:
Fcγ-receptor I (mice) = Fcγ-receptor I (mice) (UniProt P26151); assay: flow cytometry saturation binding on HeLa cells expressing RFP-tagged FcγRI (FIG. 61A, right panel)
Fcγ-receptor III (mice) = Fcγ-receptor III (mice) (UniProt P08508); assay: flow cytometry saturation binding on HeLa cells expressing RFP-tagged FcγRIII (FIG. 61C, right panel)
Fcγ-receptor IIb (mice) = Fcγ-receptor IIb (mice) (UniProt P08101); assay: flow cytometry saturation binding on HeLa cells expressing RFP-tagged FcγRIIb (FIG. 61B, right panel)
Fcγ-receptor IV (mice) = assay: flow cytometry saturation binding on HeLa cells expressing RFP-tagged FcγRIV (FIG. 61D, right panel)
Fcγ-receptor IV (mice), sequence (A0A0B4J1G0 21-249): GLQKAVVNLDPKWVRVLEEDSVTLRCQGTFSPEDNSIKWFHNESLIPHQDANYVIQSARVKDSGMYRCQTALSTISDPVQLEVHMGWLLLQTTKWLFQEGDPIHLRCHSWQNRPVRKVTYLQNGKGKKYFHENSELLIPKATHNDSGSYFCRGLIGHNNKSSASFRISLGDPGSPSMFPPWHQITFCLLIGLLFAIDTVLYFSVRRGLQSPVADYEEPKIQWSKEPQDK

Fcγ-receptor IIb (mice), sequence (P08101 30-330): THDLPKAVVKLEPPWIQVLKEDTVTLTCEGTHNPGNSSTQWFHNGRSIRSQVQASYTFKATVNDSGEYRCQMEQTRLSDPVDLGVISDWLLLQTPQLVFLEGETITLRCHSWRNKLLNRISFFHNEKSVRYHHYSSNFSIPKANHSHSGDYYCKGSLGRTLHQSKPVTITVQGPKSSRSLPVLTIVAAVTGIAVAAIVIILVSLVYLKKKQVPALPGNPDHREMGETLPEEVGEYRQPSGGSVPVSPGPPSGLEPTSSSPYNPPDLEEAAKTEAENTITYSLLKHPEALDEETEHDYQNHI
Fcγ-receptor III (mice), sequence (P08508 31-261): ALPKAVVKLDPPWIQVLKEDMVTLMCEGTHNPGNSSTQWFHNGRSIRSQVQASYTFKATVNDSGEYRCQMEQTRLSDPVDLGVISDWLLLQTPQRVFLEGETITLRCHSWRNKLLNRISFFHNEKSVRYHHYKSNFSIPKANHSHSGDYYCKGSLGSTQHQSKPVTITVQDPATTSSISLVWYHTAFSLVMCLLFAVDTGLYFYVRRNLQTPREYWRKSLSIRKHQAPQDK
Fcγ-receptor I (mice), sequence (P26151 25-404): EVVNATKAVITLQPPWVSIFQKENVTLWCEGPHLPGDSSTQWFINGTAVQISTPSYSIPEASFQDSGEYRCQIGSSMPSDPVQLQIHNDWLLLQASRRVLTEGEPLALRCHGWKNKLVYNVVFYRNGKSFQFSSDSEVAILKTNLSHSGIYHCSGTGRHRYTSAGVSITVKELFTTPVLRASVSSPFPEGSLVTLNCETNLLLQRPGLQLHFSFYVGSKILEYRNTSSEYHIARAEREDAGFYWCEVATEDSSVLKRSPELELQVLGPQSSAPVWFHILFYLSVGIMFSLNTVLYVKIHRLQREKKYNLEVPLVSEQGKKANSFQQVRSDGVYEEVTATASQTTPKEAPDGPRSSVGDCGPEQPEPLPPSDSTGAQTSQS

Kd (Fcγ-receptor I (mice)): 201 nM
Kd (Fcγ-receptor III (mice)): 2330 nM
Kd (Fcγ-receptor IIb (mice)): 609 nM
Kd (Fcγ-receptor IV (mice)): 1220 nM
Substance: whole rabbit IgG (antibody)
